Laboratory results as given in patent publication US8440629B2.
One block for each substance: values may come before it.

How the values were obtained:
[1] = target: recombinant mouse VLDLR ectodomain (mouse) (UniProt P98156); test: solid-phase binding assay, immobilised receptor, streptavidin-HRP detection, EDTA-corrected
[2] = target: VLDLR CR6-8 (human) (UniProt P98155); test: solid-phase binding assay, immobilised CR protein, anti-RAP detection
[3] = target: LRP6 CR1-3 (human) (UniProt O75581); test: as above
[4] = target: VLDLR CR78 (human) (UniProt P98155); test: as above
[5] = target: LRP6 CR23 (human) (UniProt O75581); test: as above
[6] = target: LRP6 CR12 (human) (UniProt O75581); test: as above
[7] = target: full-length LRP1 expressed on CHO-K1 cells

Kd [1]: 1 nM
Substance: tag-free RAP d3 peptide linked to maleimide-PEO2-biotin (ligand)

Kd [2]: > 300 nM
binding as percent of that for LRP1 CR3-5 [3]: < 5%
binding as percent of that for LRP1 CR3-5 [4]: < 5%
binding as percent of that for LRP1 CR3-5 [5]: < 5%
binding as percent of that for LRP1 CR3-5 [6]: < 5%
Substance: RAP d3 (ligand)

Substance: mRAPc combined with streptavidin-saporin conjugate
viable cell number (MTT assay, 48 hours) [7]: 40%
